{"source": "patent US20100254992A1", "target": "HuMCP-1-His6 Mutant-6 (66D → 66K) (human) (UniProt P13500)", "sequence (P13500 other isoform, or with tags, fused parts or gaps mutant, form in doubt)": "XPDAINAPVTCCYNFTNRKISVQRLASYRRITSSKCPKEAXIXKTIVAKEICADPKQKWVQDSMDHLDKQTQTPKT", "experiment": "Biacore, CNTO 888 captured, MCP-1-His6 in solution"}
{"substance": "CNTO 888 (antibody)", "values": [{"measurement": "Kd", "result": 0.037, "unit": "nM"}, {"measurement": "koff", "result": 0.000186, "unit": "s⁻¹"}, {"measurement": "kon", "result": "5.09e+06", "unit": "M⁻¹ s⁻¹"}]}
